Laboratory results reported in IntAct's records for PubMed 34706264.

B1: ORF3a protein (SARS-CoV-2), P0DTC3 (parent)
chain: MDLFMRIFTIGTVTLKQGEIKDATPSDFVRATATIPIQASLPFGWLIVGVALLAVFQSASKIITLKKRWQLALSKGVHFVCNLLLLFVTVYSHLLLVAAGLEAPFLYLYALVYFLQSINFVRIIMRLWLCWKCRSKNPLLYDANYFLCWHTNCYDYCIPYNSVTSSIVITSGDGTTSPISEHDYQIGGYTEKWESGVKDCVVLHSYFTSDYYQLYSTQLSTDTGVEHVTFFIYNKIVDEPEEHVQIHTIDGSSGVVNPVMEPIYDEPTTTTSVPL
B2: ORF3a protein (SARS-CoV-2), P0DTC3 (parent)
chain: B1 chain
partner: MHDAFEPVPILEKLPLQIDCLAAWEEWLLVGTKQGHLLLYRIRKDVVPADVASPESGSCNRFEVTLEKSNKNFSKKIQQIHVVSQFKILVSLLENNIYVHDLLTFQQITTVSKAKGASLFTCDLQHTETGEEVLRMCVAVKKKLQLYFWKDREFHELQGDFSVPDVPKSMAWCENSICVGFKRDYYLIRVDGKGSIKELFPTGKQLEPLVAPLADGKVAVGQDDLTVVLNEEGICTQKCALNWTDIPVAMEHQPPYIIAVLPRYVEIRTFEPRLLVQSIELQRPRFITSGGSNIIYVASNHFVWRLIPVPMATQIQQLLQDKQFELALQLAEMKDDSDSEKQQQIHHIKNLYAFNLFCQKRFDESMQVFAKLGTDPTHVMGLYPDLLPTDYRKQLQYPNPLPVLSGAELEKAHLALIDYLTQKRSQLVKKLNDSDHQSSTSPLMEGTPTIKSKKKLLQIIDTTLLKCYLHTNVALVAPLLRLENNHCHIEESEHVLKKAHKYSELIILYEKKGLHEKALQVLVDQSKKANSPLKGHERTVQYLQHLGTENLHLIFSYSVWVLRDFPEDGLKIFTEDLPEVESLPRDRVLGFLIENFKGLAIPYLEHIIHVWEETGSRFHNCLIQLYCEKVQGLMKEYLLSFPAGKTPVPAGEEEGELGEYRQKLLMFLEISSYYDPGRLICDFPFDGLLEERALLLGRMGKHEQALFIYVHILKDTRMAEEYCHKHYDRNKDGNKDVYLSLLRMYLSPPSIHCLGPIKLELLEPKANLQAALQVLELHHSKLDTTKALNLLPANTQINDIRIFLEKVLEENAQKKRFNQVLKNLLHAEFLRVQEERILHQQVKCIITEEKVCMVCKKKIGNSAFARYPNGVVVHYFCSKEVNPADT

Variants of: B1
Conditions: with stx4_human STX4, Q12846
Sequence of stx4_human STX4, Q12846 (Q12846 whole entry): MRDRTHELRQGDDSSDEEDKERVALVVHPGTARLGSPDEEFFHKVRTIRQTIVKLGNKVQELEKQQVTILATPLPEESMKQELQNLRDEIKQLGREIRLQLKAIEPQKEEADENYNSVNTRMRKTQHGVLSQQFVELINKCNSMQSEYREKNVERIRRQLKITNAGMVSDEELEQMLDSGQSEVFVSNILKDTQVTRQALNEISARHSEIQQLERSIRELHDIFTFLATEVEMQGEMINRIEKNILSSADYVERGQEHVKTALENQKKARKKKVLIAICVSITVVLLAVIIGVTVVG

Variant | effect of a mutation on the interaction
S171E | disrupting interaction strength

Variants of: B1
Conditions: with vamp7_human VAMP7, P51809
Sequence of vamp7_human VAMP7, P51809 (P51809 whole entry): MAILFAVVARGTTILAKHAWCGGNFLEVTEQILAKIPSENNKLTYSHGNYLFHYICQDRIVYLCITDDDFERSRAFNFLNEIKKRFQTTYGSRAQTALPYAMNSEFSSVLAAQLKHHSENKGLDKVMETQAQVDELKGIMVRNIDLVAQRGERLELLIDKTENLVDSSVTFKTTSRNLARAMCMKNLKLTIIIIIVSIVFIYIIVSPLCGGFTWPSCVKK

Variant | effect of a mutation on the interaction
S171E | disrupting interaction strength

Variants of: B2
Conditions: with vps39_human VPS39, Q96JC1

Variant | effect of a mutation on the interaction
W193R | decreasing interaction strength
S171E | disrupting interaction strength

Variants of: B2
Conditions: with vps39_human VPS39, Q96JC1
Remark: another data set of the same source

Variant | effect of a mutation on the interaction
S58L | with no effect
Q116L | with no effect
MDLFMRIFTIGTVTLKQGEIKDATPSDFVRATATIPIQASLPFGWLIVGVALLAVFESASKIITLKKRWQLALSKGVHFVCNLLLLFVTVYSHLLLVAAGLEAPFLYLYALVYFLQSINFVRIIMRLWLCWKCRSKNPLLYDANYFLCWHTNCYDYCIPYNSVTSSIVITSGDGTTSPISEHDYQIGGYTEKWESGVKDCVVLHSYFTSDYYQLYSTQLSTDTGVEHVTFFIYNKIVDEPEEHVQIHTIDGSSGVVNPVMEPIYDEPTTTTSVPL [Q57E] | with no effect
